Experimental data published in PMC6279252.

Columns and labels:
[1] = molecular target: stable Ragulator-VhH + GFP-Rag complexes (UniProt Q9Y2Q5); assay: single-molecule imaging on beads
[2] = molecular target: GST-Ragulator pre-incubated with GFP-tagged active-loaded Rag heterodimers (UniProt Q6IAA8); assay: single-molecule imaging on beads

Chain of UniProt Q9Y2Q5 (Q9Y2Q5 whole entry, looked up, one chain of several): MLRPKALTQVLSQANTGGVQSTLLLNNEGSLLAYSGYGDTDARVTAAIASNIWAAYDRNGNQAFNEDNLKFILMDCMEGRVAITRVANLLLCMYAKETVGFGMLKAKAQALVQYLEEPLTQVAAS

residence time (photobleaching-corrected half-life, t1/2) [1]: 13.2 s
residence time (photobleaching-corrected half-life, t1/2) [2]: 3.1 s
Substance: Raptor-Halo^TMR (co-purified with mTOR and mLST8) (from UniProt Q8N122;P42345;Q9BVC4) (complex)
